Source: the Immune Epitope Database (IEDB)
pIC50: −log10 of the molar value.

What was measured:
HLA-A*68:02 = experiment: IEDB peptide-MHC binding, cellular MHC/competitive/fluorescence; ≥ and ≤ were set here for values at or beyond the usual limits of such assays
HLA-A*02:06 = experiment: IEDB peptide-MHC binding, purified MHC/competitive/radioactivity; ≥ and ≤ were set here for values at or beyond the usual limits of such assays
HLA-A*02:01 = experiment: as above
HLA-A*02:03 = experiment: as above
HLA-A*02:02 = experiment: as above
[1] = source organism: Hepacivirus hominis
[2] = source organism: Mammarenavirus whitewaterense
[3] = source organism: Vaccinia virus WR

Sequence	pIC50 (HLA-A*68:02; [3])	pIC50 (HLA-A*02:06; [3])	pIC50 (HLA-A*02:01; [3])	pIC50 (HLA-A*02:03; [3])	pIC50 (HLA-A*02:02; [3])	further results
AIYVFCISL						pIC50 (HLA-A*68:02; source organism: SARS-CoV1): 5.26; pIC50 (HLA-A*02:06; source organism: SARS-CoV1): 7.32; pIC50 (HLA-A*02:01; source organism: SARS-CoV1): 6.92; pIC50 (HLA-A*02:03; source organism: SARS-CoV1): 6.70; pIC50 (HLA-A*02:02; source organism: SARS-CoV1): 6.84
LLMALPHQA						pIC50 (HLA-A*68:02; [1]): 5.01; pIC50 (HLA-A*02:06; [1]): 5.81; pIC50 (HLA-A*02:01; [1]): 7.14; pIC50 (HLA-A*02:03; [1]): 8.00; pIC50 (HLA-A*02:02; [1]): 7.28
MLCLLLLSV						pIC50 (HLA-A*68:02; [1]): 4.81; pIC50 (HLA-A*02:06; [1]): 6.49; pIC50 (HLA-A*02:01; [1]): 6.85; pIC50 (HLA-A*02:03; [1]): 6.58; pIC50 (HLA-A*02:02; [1]): 6.68
FLLRGPFEAS						pIC50 (HLA-A*68:02; [2]): 4.41; pIC50 (HLA-A*02:06; [2]): 7.15; pIC50 (HLA-A*02:01; [2]): 6.96; pIC50 (HLA-A*02:03; [2]): 7.08; pIC50 (HLA-A*02:02; [2]): 7.57
GLLDSIKMI	≤ 4.15	7.37	7.82	7.85	7.10	
ILHNIYRLFT	4.39	5.92	6.64	7.96	6.90	
VLTHGLASV						pIC50 (HLA-A*68:02; source organism: SARS-CoV1): 5.27; pIC50 (HLA-A*02:06; source organism: SARS-CoV1): 8.85; pIC50 (HLA-A*02:01; source organism: SARS-CoV1): 8.43; pIC50 (HLA-A*02:03; source organism: SARS-CoV1): 9.52; pIC50 (HLA-A*02:02; source organism: SARS-CoV1): 8.02
SALMTLDDL	5.16	7.00	5.96	6.15	6.39	
PTWLGAAITL	5.13	5.75	5.32	6.00	5.87	
ALLADKFPV						pIC50 (HLA-A*68:02; source organism: SARS-CoV1): 4.89; pIC50 (HLA-A*02:06; source organism: SARS-CoV1): 7.64; pIC50 (HLA-A*02:01; source organism: SARS-CoV1): 8.77; pIC50 (HLA-A*02:03; source organism: SARS-CoV1): 6.22; pIC50 (HLA-A*02:02; source organism: SARS-CoV1): 7.54
FLARKGIDT	≤ 4.15	5.52	5.85	6.50	5.99	
ALTDVEKRIL	4.86	6.03	6.37	6.90	7.01	
KLYGYASLT	4.96	5.70	6.49	7.66	7.12	
KINEMVDEL	4.31	6.50	6.54	7.12	8.85	
SINITPDDGL	5.23	9.47	5.99	5.91	6.38	
LVFLILCFT						pIC50 (HLA-A*68:02; source organism: SARS-CoV1): 5.18; pIC50 (HLA-A*02:06; source organism: SARS-CoV1): 5.86; pIC50 (HLA-A*02:01; source organism: SARS-CoV1): 6.29; pIC50 (HLA-A*02:03; source organism: SARS-CoV1): 5.73; pIC50 (HLA-A*02:02; source organism: SARS-CoV1): 5.60
FLPQIGGEAI	5.18	8.00	6.80	7.85	9.00	
RLIVYPDLGV						pIC50 (HLA-A*68:02; [1]): 5.18; pIC50 (HLA-A*02:06; [1]): 6.89; pIC50 (HLA-A*02:01; [1]): 7.37; pIC50 (HLA-A*02:03; [1]): 7.82; pIC50 (HLA-A*02:02; [1]): 8.72
